The values below come from patent US20260184814A1, “BROADLY NE[…] INFLUENZA NEURAMINIDASE” (priority 2022, published 2026).

Test [1] deals with human C1q (human) (UniProt P02745). Kind of test: MSD [cont'd].
The target in test [2] is human FcγRIIIa (V158 allele) (human) (UniProt P08637). Kind of test: MSD [cont'd].
Test [3] deals with human FcRn (human) (UniProt P55899). Kind of test: MSD [cont'd].
Test [4] deals with human FcγRIIIb (human) (UniProt O75015). Kind of test: MSD [cont'd].
Test [5] deals with human FcγRIIa (R131 allele) (human) (UniProt P12318). Kind of test: MSD [cont'd].
Test [6] deals with human FcγRIIb (human) (UniProt P31994). Kind of test: MSD [cont'd].
The target of test [7] is human FcγRIIa (H131 allele) (human) (UniProt P12318). Kind of test: MSD [cont'd].
Test [8] has as its target human FcγRIIIa (F158 allele) (human) (UniProt P08637). Kind of test: MSD [cont'd].
Test [9] deals with human FcγRIIIa (V158 allele) (human) (UniProt P08637).
Test [10] addresses human FcγRIIb (human) (UniProt P31994).
Test [11] concerns the target human FcγRIIa (H131 allele) (human) (UniProt P12318).
Test [12] has as its target human FcγRIIIa (F158 allele) (human) (UniProt P08637).
Test [13] has as its target human C1q (human) (UniProt P02745). Kind of test: MSD [cont'd]. This is another data set of the same source.
The target of test [14] is human FcRn (human) (UniProt P55899). Kind of test: MSD [cont'd]. The source holds these as a separate data set.
Test [15] deals with human FcγRIIa (R131 allele) (human) (UniProt P12318). Kind of test: MSD [cont'd]. This is another data set of the same source.
The target of test [16] is human FcγRIIb (human) (UniProt P31994). Kind of test: MSD [cont'd]. This is another data set of the same source.
Test [17] has as its target human FcγRIIa (H131 allele) (human) (UniProt P12318). Kind of test: MSD [cont'd]. This is another data set of the same source.
The target of test [18] is human FcγRIIIa (F158 allele) (human) (UniProt P08637). Kind of test: MSD [cont'd]. This is another data set of the same source.
In test [19] the target is human FcγRIIIa (V158 allele) (human) (UniProt P08637). The source holds these as a separate data set.
The target is the same in test [20]. Kind of test: MSD [cont'd]. This is another data set of the same source.
In test [21] the target is human FcRn (human) (UniProt P55899). Kind of test: MSD, pH 6 [cont'd].
Test [22] concerns the target human FcγRIIa (R131 allele) (human) (UniProt P12318). Kind of test: MSD.
The target in test [23] is human FcγRIIb (human) (UniProt P31994). Kind of test: MSD.
Test [24] addresses human FcγRIIa (H131 allele) (human) (UniProt P12318). Kind of test: MSD.
The target of test [25] is human FcγRIIIa (V158 allele) (human) (UniProt P08637). Kind of test: MSD electrochemiluminescence binding assay; column IIIA_V.
Test [26] deals with human FcγRIIIb (human) (UniProt O75015). Kind of test: MSD electrochemiluminescence binding assay; column IIIB.
Test [27] deals with human C1q (human) (UniProt P02745). Kind of test: MSD.
The target in test [28] is human FcγRIIIa (V158 allele) (human) (UniProt P08637). Kind of test: MSD.
Test [29] has as its target human FcRn (human) (UniProt P55899). Kind of test: MSD.
In test [30] the target is human FcγRIIIb (human) (UniProt O75015). Kind of test: MSD.
The target in test [31] is human FcγRIIIa (F158 allele) (human) (UniProt P08637). Kind of test: MSD.
The target is the same in test [32]. Kind of test: MSD electrochemiluminescence binding assay; column IIIA_F.
Test [33] addresses human FcRn (human) (UniProt P55899). Kind of test: MSD electrochemiluminescence binding assay; column FcRn.
In test [34] the target is human FcγRIIa (H131 allele) (human) (UniProt P12318). Kind of test: MSD electrochemiluminescence binding assay; column IIA_H.
In test [35] the target is human FcγRIIa (R131 allele) (human) (UniProt P12318). Kind of test: MSD electrochemiluminescence binding assay; column IIA_R.
The target in test [36] is human FcγRIIb (human) (UniProt P31994). Kind of test: MSD electrochemiluminescence binding assay; column IIB.
Test [37] concerns the target human FcγRIIIa (V158 allele) (human) (UniProt P08637). The source holds these as a separate data set.
Test [38] deals with human FcγRIIb (human) (UniProt P31994). This is another data set of the same source.
Test [39] addresses human FcγRIIa (H131 allele) (human) (UniProt P12318). This is another data set of the same source.
For test [40], the target named is human FcγRIIIa (F158 allele) (human) (UniProt P08637). The source holds these as a separate data set.

Like-named read-outs stand apart in the source and are kept apart here.

Sequence of human C1q (human) (P02745 23-245 limits assumed, chain 1 of 3): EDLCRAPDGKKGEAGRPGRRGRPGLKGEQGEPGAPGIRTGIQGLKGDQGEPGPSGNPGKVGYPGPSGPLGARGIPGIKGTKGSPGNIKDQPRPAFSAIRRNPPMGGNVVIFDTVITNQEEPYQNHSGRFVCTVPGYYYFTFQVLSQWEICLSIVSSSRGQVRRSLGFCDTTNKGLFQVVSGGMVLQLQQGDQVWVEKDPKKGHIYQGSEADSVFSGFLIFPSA
Sequence of human C1q (human) (P02746 28-253 limits assumed, chain 2 of 3, further chain): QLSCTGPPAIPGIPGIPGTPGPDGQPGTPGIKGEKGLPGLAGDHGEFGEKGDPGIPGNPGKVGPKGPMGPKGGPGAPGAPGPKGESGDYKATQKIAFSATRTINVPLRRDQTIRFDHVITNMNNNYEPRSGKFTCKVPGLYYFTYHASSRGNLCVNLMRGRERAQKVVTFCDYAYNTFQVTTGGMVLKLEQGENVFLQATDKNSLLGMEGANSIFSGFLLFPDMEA
Sequence of human C1q (human) (P02747 29-245 limits assumed, chain 3 of 3, further chain): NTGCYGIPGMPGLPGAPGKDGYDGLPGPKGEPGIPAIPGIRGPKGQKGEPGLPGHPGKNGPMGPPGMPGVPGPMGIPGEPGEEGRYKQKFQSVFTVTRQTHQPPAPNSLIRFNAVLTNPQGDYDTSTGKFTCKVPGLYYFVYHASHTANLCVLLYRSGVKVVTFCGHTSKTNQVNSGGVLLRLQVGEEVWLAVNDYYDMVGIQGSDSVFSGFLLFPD
Sequence of human FcRn (human) (P55899 24-297 limits assumed, chain 1 of 2): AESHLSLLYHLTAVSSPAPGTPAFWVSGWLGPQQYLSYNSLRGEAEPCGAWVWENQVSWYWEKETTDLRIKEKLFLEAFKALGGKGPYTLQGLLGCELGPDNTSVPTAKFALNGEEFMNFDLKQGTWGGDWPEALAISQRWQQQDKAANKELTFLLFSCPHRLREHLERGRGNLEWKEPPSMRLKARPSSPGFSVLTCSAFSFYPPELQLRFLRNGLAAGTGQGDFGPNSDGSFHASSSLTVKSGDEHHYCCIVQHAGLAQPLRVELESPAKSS
Sequence of human FcRn (human) (chain, as listed by the source limits assumed, chain 2 of 2): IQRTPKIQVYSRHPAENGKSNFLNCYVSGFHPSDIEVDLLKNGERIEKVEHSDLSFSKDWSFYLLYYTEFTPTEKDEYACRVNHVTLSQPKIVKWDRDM
Sequence of human FcγRIIIa (F158 allele) (human) (P08637 17-208 limits assumed): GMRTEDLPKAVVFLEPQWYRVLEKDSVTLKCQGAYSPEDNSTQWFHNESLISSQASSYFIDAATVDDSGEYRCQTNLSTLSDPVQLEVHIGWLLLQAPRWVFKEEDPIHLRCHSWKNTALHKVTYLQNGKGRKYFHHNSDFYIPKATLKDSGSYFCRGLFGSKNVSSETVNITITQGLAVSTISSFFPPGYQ
Sequence of human FcγRIIb (human) (P31994 43-217 limits assumed): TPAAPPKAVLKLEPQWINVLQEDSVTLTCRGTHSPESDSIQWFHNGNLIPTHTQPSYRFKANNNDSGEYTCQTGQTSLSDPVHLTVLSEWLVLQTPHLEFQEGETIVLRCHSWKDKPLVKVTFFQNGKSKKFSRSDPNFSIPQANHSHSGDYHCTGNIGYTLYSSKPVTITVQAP
Sequence of human FcγRIIa (H131 allele) (human) (P12318 34-218 limits assumed): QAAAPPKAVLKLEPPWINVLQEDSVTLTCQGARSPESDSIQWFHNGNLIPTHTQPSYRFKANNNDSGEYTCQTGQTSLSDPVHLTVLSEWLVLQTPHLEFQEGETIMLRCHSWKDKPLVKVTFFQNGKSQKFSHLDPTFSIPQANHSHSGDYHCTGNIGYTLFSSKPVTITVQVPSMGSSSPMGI
Sequence of human FcγRIIIa (V158 allele) (human) (P08637 17-208 F176V limits assumed): as the sequence (P08637 17-208 limits assumed) above, with F160V counted along it
Sequence of human FcγRIIa (R131 allele) (human) (P12318 34-218 H167R limits assumed): as the sequence (P12318 34-218 limits assumed) above, with H134R counted along it
Sequence of human FcγRIIIb (human) (O75015 17-200 limits assumed): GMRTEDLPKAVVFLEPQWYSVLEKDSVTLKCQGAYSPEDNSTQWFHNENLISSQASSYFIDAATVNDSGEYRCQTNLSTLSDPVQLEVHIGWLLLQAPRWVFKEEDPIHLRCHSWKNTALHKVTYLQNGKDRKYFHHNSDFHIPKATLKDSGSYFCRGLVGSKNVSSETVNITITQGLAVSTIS

On to G236A_S239D_A330L_I332E (antibody), for which the fold-change vs wt in the test with human C1q (human) [1] was 0 fold; in test [2] it was 8.03 fold; with human FcRn (human) [3] it was 1.02 fold; with human FcγRIIIb (human) [4], 14 fold; in [5] it was 9.68 fold; with human FcγRIIb (human) [6], 1.94 fold. Further, the fold-change vs wt amounted to 5.15 fold in [7] and 55.1 fold in [8]. The FcγR reporter signaling, fold-change vs wt [cont'd] was determined as 6.02 fold in test [9], 1.2 fold in the test with human FcγRIIb (human) [10], 2.47 fold in [11] and 19.4 fold in test [12].
In the case of “IgG1 antibody with Fc variant E272R_L309T_S219Y_S267E”, the fold-change vs wt with human C1q (human) [13] is 2.53 fold; in the test with human FcRn (human) [14], 0.98 fold; in [15], 10.7 fold; in the test with human FcγRIIb (human) [16], 4.77 fold; in [17], 0.33 fold; in test [18] it was 0.37 fold.
L309T_P238D_P396L_T366A-afuc (antibody): in test [19], the FcγR reporter signaling, fold to wt-fucose [cont'd] is 0.16 fold.
As to A330L_I332E (antibody), the fold-change vs wt with human C1q (human) [1] was 0.03 fold; in test [2] it was 3.52 fold; in the test with human FcRn (human) [3], 1.12 fold; with human FcγRIIIb (human) [4], 5.19 fold; in test [5], 0.52 fold; in the test with human FcγRIIb (human) [6], 0.66 fold. In addition, the values for the fold-change vs wt in test [7] and in [8] were 0.42 fold and 11.9 fold, respectively. The FcγR reporter signaling, fold-change vs wt [cont'd] in [9] was 4.38 fold; with human FcγRIIb (human) [10], 0.69 fold; in test [11], 0.71 fold; in [12] it was 11.9 fold.
Turning to IgG1 antibody with Fc variant Y300L, the fold-change vs wt with human C1q (human) [13] stood at 2.14 fold; in [20], 1.62 fold; with human FcRn (human) [14] it was 1.06 fold; in [18], 1.24 fold; in [5], 0.82 fold; with human FcγRIIb (human) [6], 1.18 fold. For the same substance, the fold-change vs wt in [7] worked out at 1.86 fold. Also, the fold-change to WT Fc amounted to 1.06 fold with human FcRn (human) [21]; 0.822 fold in test [22]; 1.18 fold with human FcγRIIb (human) [23]; 1.86 fold in test [24]; 2.16 fold with human C1q (human) [1]; 1.62 fold in test [2]. Moreover, the fold-change to WT Fc in test [8] came to 1.25 fold.
As for IgG1 antibody with Fc variant G236Y, the fold-change vs wt with human C1q (human) [13] was found to be 3.22 fold; in test [20] it was 0.12 fold; in the test with human FcRn (human) [14] it was 1.05 fold; in test [15] it was 0.42 fold; with human FcγRIIb (human) [16] it was 0.55 fold; in test [17] it was 0.74 fold. The fold-change vs wt in test [18] was determined as 0.56 fold. Besides, the fold-change to WT Fc was determined as 1.05 fold with human FcRn (human) [21]; 0.418 fold in test [22]; 0.547 fold in the test with human FcγRIIb (human) [23]; 0.735 fold in test [24]; 3.25 fold with human C1q (human) [1]; 0.116 fold in test [2]. Moreover, in test [8], the fold-change to WT Fc was determined as 0.559 fold.
For “IgG1 antibody with Fc variant E345K_G236S_L235Y_S267E”, the fold-change vs wt amounted to 2.35 fold with human C1q (human) [13]; 0.05 fold in test [20]; 0.9 fold with human FcRn (human) [14]; 9.22 fold in [15]; 1.71 fold with human FcγRIIb (human) [16]; 0.53 fold in test [17]. The fold-change vs wt in test [18] amounted to 0.29 fold.
Take “IgG1 antibody with Fc variant G236A_L328V_Q295E”: the fold-change in binding vs wild-type IgG1 stood at 0.36 in test [25]; 0.71 with human FcγRIIIb (human) [26]; 0.52 in test [32]; 1.07 with human FcRn (human) [33]; 7.76 in test [34]; 10.7 in [35]. For the same substance, the fold-change in binding vs wild-type IgG1 with human FcγRIIb (human) [36] was determined as 0.81. Further, the fold-change vs FY1 rIgG1m3 in the test with human C1q (human) [27] is 0.07 fold; in [28], 0.4 fold; with human FcRn (human) [29], 1.1 fold; in the test with human FcγRIIIb (human) [30], 0.7 fold; in test [22], 10.8 fold; with human FcγRIIb (human) [23] it was 0.9 fold. The fold-change vs FY1 rIgG1m3 in [24] came out at 7.8 fold; in [31] it was 0.5 fold. Further, the fold-change vs wt in test [28] amounted to 0.36 fold; with human FcγRIIIb (human) [30] it was 0.7 fold; in test [22] it was 10.8 fold; with human FcγRIIb (human) [23] it was 0.86 fold; in test [24], 7.8 fold; in test [31], 0.52 fold. Moreover, the fold-change vs wt is 0.07 fold with human C1q (human) [1] and 1.08 fold with human FcRn (human) [3]. Moreover, the FcγR reporter signaling, fold-change vs wt [cont'd] amounted to 0.03 fold in [37], 0.66 fold with human FcγRIIb (human) [38], 2.18 fold in [39] and 0.02 fold in test [40].
With “IgG1 antibody with Fc variant R292P_Y300L”, the fold-change vs wt was 2.07 fold with human C1q (human) [13]; 2.09 fold with human C1q (human) [1]; 4.85 fold in [2]; 0.88 fold with human FcRn (human) [3]; 1.72 fold with human FcγRIIIb (human) [4]; 0.68 fold in test [5]. The fold-change vs wt in the test with human FcγRIIb (human) [6] turned out to be 0.9 fold; in [7], 1.4 fold; in test [8], 5.29 fold. The fold-change to WT Fc with human FcRn (human) [21] stood at 0.879 fold; in test [22] it was 0.682 fold; in the test with human FcγRIIb (human) [23] it was 0.9 fold; in [24], 1.4 fold; in the test with human C1q (human) [1], 2.09 fold; in [2], 4.85 fold. Further, the fold-change to WT Fc in test [8] amounted to 5.29 fold. Moreover, the FcγR reporter signaling, fold-change vs wt [cont'd] in test [9] was determined as 3.66 fold; in the test with human FcγRIIb (human) [10], 0.72 fold; in test [11], 0.98 fold; in [12], 7.42 fold.
“IgG1 antibody with Fc variant S239D_H268E_G236A”: the fold-change vs wt stood at 0.4 fold with human C1q (human) [1]; 7.9 fold in test [2]; 0.91 fold with human FcRn (human) [3]; 3.04 fold in the test with human FcγRIIIb (human) [4]; 53.5 fold in test [5]; 5.09 fold in the test with human FcγRIIb (human) [6]. Also, the fold-change vs wt in test [7] was determined as 11.7 fold; in test [8], 16.3 fold. The FcγR reporter signaling, fold-change vs wt [cont'd] in test [9] was determined as 5.22 fold; with human FcγRIIb (human) [10], 1.8 fold; in test [11] it was 2.15 fold; in [12], 12.8 fold.
For “IgG1 antibody with Fc variant F243L_G446E_P396L_S267E”, the fold-change vs wt in the test with human C1q (human) [13] worked out at 4.17 fold; in [20], 0.24 fold; with human FcRn (human) [14] it was 1.05 fold; in test [15], 31.1 fold; with human FcγRIIb (human) [16] it was 15.7 fold; in [17], 0.77 fold. Further, the fold-change vs wt in test [18] came to 0.63 fold.
